Measurements reported in the Immune Epitope Database (IEDB).

Key:
Assay in all cases: IEDB peptide-MHC binding, purified MHC/competitive/radioactivity; filed as Kd, often an IC50 or EC50 that approximates it; ≥ and ≤ were set here for values at or beyond the usual limits of such assays
HLA-A*03:01 = molecular target: HLA-A*03:01
HLA-A*11:01 = molecular target: HLA-A*11:01
HLA-A*31:01 = molecular target: HLA-A*31:01
HLA-A*33:01 = molecular target: HLA-A*33:01
HLA-A*68:01 = molecular target: HLA-A*68:01
HLA-A*02:03 = details: source organism: Dengue virus 3 Martinique/1243/1999
HLA-A*02:06 = details: source organism: Dengue virus 2 Peru/IQT2913/1996
[1] = source organism: Vaccinia virus WR
[2] = source organism: SARS coronavirus Tor2
[3] = source organism: Mammarenavirus guanaritoense
[4] = source organism: Mammarenavirus brazilense
[5] = source organism: Mammarenavirus juninense

Sequence: IAPGIADIR
- Kd (HLA-A*03:01; [1]): ≥ 78000 nM
- Kd (HLA-A*11:01; [1]): ≥ 50100 nM
- Kd (HLA-A*31:01; [1]): ≥ 23900 nM
- Kd (HLA-A*33:01; [1]): ≥ 29000 nM
- Kd (HLA-A*68:01; [1]): 29.4 nM

Sequence: SQIQLSLLK
- Kd (HLA-A*03:01; [2]): 892 nM
- Kd (HLA-A*11:01; [2]): 29.2 nM
- Kd (HLA-A*31:01; [2]): 18000 nM
- Kd (HLA-A*33:01; [2]): ≥ 77700 nM
- Kd (HLA-A*68:01; [2]): 6270 nM

Sequence: EISSNDNAK
- Kd (HLA-A*03:01; [1]): 16800 nM
- Kd (HLA-A*11:01; [1]): 443 nM
- Kd (HLA-A*31:01; [1]): ≥ 55600 nM
- Kd (HLA-A*33:01; [1]): 9600 nM
- Kd (HLA-A*68:01; [1]): 31 nM

Sequence: LFIDRGSIK
- Kd (HLA-A*03:01; [1]): 1720 nM
- Kd (HLA-A*11:01; [1]): 14300 nM
- Kd (HLA-A*31:01; [1]): 2140 nM
- Kd (HLA-A*33:01; [1]): 1110 nM
- Kd (HLA-A*68:01; [1]): 1290 nM

Sequence: VCEEFFHQK
- Kd (HLA-A*03:01; [3]): 11600 nM
- Kd (HLA-A*11:01; [3]): 621 nM
- Kd (HLA-A*31:01; [3]): ≥ 22200 nM
- Kd (HLA-A*33:01; [3]): ≥ 77700 nM
- Kd (HLA-A*68:01; [3]): 5950 nM

Sequence: CCNWLDRCRH
- Kd (HLA-A*03:01; [3]): ≥ 70000 nM
- Kd (HLA-A*11:01; [3]): ≥ 69700 nM
- Kd (HLA-A*31:01; [3]): 1350 nM
- Kd (HLA-A*33:01; [3]): 15900 nM
- Kd (HLA-A*68:01; [3]): ≥ 70100 nM

Sequence: VVKLTAVCMK
- Kd (HLA-A*03:01; [1]): 115 nM
- Kd (HLA-A*11:01; [1]): 121 nM
- Kd (HLA-A*31:01; [1]): 208 nM
- Kd (HLA-A*33:01; [1]): 2680 nM
- Kd (HLA-A*68:01; [1]): 723 nM

Sequence: RLASNAICSA
- Kd (HLA-A*02:03): 135 nM

Sequence: QTTVNTLSER
- Kd (HLA-A*03:01; [1]): 1520 nM
- Kd (HLA-A*11:01; [1]): 76.8 nM
- Kd (HLA-A*31:01; [1]): 21.7 nM
- Kd (HLA-A*33:01; [1]): 155 nM
- Kd (HLA-A*68:01; [1]): 5.22 nM

Sequence: TVKTNLYMK
- Kd (HLA-A*03:01; [1]): 3680 nM
- Kd (HLA-A*11:01; [1]): 16.2 nM
- Kd (HLA-A*31:01; [1]): 81.7 nM
- Kd (HLA-A*33:01; [1]): 6320 nM
- Kd (HLA-A*68:01; [1]): 104 nM

Sequence: ALNHTKKWK
- Kd (HLA-A*03:01; [2]): 784 nM
- Kd (HLA-A*11:01; [2]): 5640 nM
- Kd (HLA-A*31:01; [2]): 528 nM
- Kd (HLA-A*33:01; [2]): ≥ 77700 nM
- Kd (HLA-A*68:01; [2]): ≥ 77700 nM

Sequence: GIFKNNDVR
- Kd (HLA-A*03:01; [1]): 2210 nM
- Kd (HLA-A*11:01; [1]): 1660 nM
- Kd (HLA-A*31:01; [1]): 11500 nM
- Kd (HLA-A*33:01; [1]): ≥ 28400 nM
- Kd (HLA-A*68:01; [1]): 132 nM

Sequence: AAVTLNRIK
- Kd (HLA-A*03:01; [1]): ≥ 34800 nM
- Kd (HLA-A*11:01; [1]): 4760 nM
- Kd (HLA-A*31:01; [1]): 9300 nM
- Kd (HLA-A*33:01; [1]): ≥ 27100 nM
- Kd (HLA-A*68:01; [1]): 3160 nM

Sequence: TLAVPYNMR
- Kd (HLA-A*03:01; [2]): 995 nM
- Kd (HLA-A*11:01; [2]): 3230 nM
- Kd (HLA-A*31:01; [2]): 152 nM
- Kd (HLA-A*33:01; [2]): 126 nM
- Kd (HLA-A*68:01; [2]): 9.36 nM

Sequence: AISKLGINY
- Kd (HLA-A*03:01; [1]): 178 nM
- Kd (HLA-A*11:01; [1]): 22 nM
- Kd (HLA-A*31:01; [1]): 2740 nM
- Kd (HLA-A*33:01; [1]): 8450 nM
- Kd (HLA-A*68:01; [1]): 1340 nM

Sequence: SAVVDNKLK
- Kd (HLA-A*03:01; [1]): ≥ 23600 nM
- Kd (HLA-A*11:01; [1]): 508 nM
- Kd (HLA-A*31:01; [1]): ≥ 58900 nM
- Kd (HLA-A*33:01; [1]): ≥ 77700 nM
- Kd (HLA-A*68:01; [1]): 580 nM

Sequence: LSSIKSKSRR
- Kd (HLA-A*03:01; [1]): ≥ 32100 nM
- Kd (HLA-A*11:01; [1]): 2030 nM
- Kd (HLA-A*31:01; [1]): 644 nM
- Kd (HLA-A*33:01; [1]): 16500 nM
- Kd (HLA-A*68:01; [1]): 163 nM

Sequence: LLNSMMNRDK
- Kd (HLA-A*03:01; [1]): 39.2 nM
- Kd (HLA-A*11:01; [1]): 1780 nM
- Kd (HLA-A*31:01; [1]): 690 nM
- Kd (HLA-A*33:01; [1]): ≥ 27500 nM
- Kd (HLA-A*68:01; [1]): ≥ 70200 nM

Sequence: PISELSRLR
- Kd (HLA-A*03:01; [1]): ≥ 78000 nM
- Kd (HLA-A*11:01; [1]): 5400 nM
- Kd (HLA-A*31:01; [1]): 484 nM
- Kd (HLA-A*33:01; [1]): 919 nM
- Kd (HLA-A*68:01; [1]): 679 nM

Sequence: NIADAARHY
- Kd (HLA-A*03:01; [1]): 6720 nM
- Kd (HLA-A*11:01; [1]): 11300 nM
- Kd (HLA-A*31:01; [1]): 5040 nM
- Kd (HLA-A*33:01; [1]): 7730 nM
- Kd (HLA-A*68:01; [1]): 469 nM

Sequence: DLIVTFRERY
- Kd (HLA-A*03:01; [1]): 35.1 nM
- Kd (HLA-A*11:01; [1]): 52.6 nM
- Kd (HLA-A*31:01; [1]): 137 nM
- Kd (HLA-A*33:01; [1]): 1240 nM
- Kd (HLA-A*68:01; [1]): 23.5 nM

Sequence: FLDKSIHLTK
- Kd (HLA-A*03:01; [1]): 117 nM
- Kd (HLA-A*11:01; [1]): 177 nM
- Kd (HLA-A*31:01; [1]): 104 nM
- Kd (HLA-A*33:01; [1]): 530 nM
- Kd (HLA-A*68:01; [1]): 235 nM

Sequence: SVTLDFTKFH
- Kd (HLA-A*03:01; [4]): 7520 nM
- Kd (HLA-A*11:01; [4]): 7100 nM
- Kd (HLA-A*31:01; [4]): 10100 nM
- Kd (HLA-A*33:01; [4]): 9440 nM
- Kd (HLA-A*68:01; [4]): 18400 nM

Sequence: KYIHCFRKPH
- Kd (HLA-A*03:01; [5]): ≥ 70000 nM
- Kd (HLA-A*11:01; [5]): ≥ 69700 nM
- Kd (HLA-A*31:01; [5]): 12.7 nM
- Kd (HLA-A*33:01; [5]): ≥ 46100 nM
- Kd (HLA-A*68:01; [5]): ≥ 70100 nM

Sequence: ALCTFLLNK
- Kd (HLA-A*03:01; [2]): 0.778 nM
- Kd (HLA-A*11:01; [2]): 2.74 nM
- Kd (HLA-A*31:01; [2]): 352 nM
- Kd (HLA-A*33:01; [2]): 6670 nM
- Kd (HLA-A*68:01; [2]): 1050 nM

Sequence: LCCSLDHSK
- Kd (HLA-A*03:01; [3]): ≥ 33700 nM
- Kd (HLA-A*11:01; [3]): ≥ 38400 nM
- Kd (HLA-A*31:01; [3]): 811 nM
- Kd (HLA-A*33:01; [3]): 7340 nM
- Kd (HLA-A*68:01; [3]): ≥ 32700 nM

Sequence: IAARILSEK
- Kd (HLA-A*03:01; [1]): 14.9 nM
- Kd (HLA-A*11:01; [1]): 13.5 nM
- Kd (HLA-A*31:01; [1]): 4550 nM
- Kd (HLA-A*33:01; [1]): 4870 nM
- Kd (HLA-A*68:01; [1]): 11.8 nM

Sequence: FFRKLVLTNK
- Kd (HLA-A*03:01; [1]): 1020 nM
- Kd (HLA-A*11:01; [1]): 390 nM
- Kd (HLA-A*31:01; [1]): 200 nM
- Kd (HLA-A*33:01; [1]): 243 nM
- Kd (HLA-A*68:01; [1]): 3730 nM

Sequence: VIVVPVIDR
- Kd (HLA-A*03:01; [1]): ≥ 78000 nM
- Kd (HLA-A*11:01; [1]): 675 nM
- Kd (HLA-A*31:01; [1]): 9910 nM
- Kd (HLA-A*33:01; [1]): ≥ 77700 nM
- Kd (HLA-A*68:01; [1]): 279 nM

Sequence: ILAGPMPVTA
- Kd (HLA-A*02:03): 125 nM

Sequence: LLLPSTDVNK
- Kd (HLA-A*03:01; [1]): 41.1 nM
- Kd (HLA-A*11:01; [1]): 37.8 nM
- Kd (HLA-A*31:01; [1]): 3020 nM
- Kd (HLA-A*33:01; [1]): ≥ 70000 nM
- Kd (HLA-A*68:01; [1]): 2920 nM

Sequence: HLRVLFSIFY
- Kd (HLA-A*03:01; [1]): 37.5 nM
- Kd (HLA-A*11:01; [1]): 4970 nM
- Kd (HLA-A*31:01; [1]): 1010 nM
- Kd (HLA-A*33:01; [1]): 1850 nM
- Kd (HLA-A*68:01; [1]): 2080 nM

Sequence: YTVEFDRDK
- Kd (HLA-A*03:01; [1]): ≥ 78000 nM
- Kd (HLA-A*11:01; [1]): 18900 nM
- Kd (HLA-A*31:01; [1]): ≥ 33400 nM
- Kd (HLA-A*33:01; [1]): ≥ 44800 nM
- Kd (HLA-A*68:01; [1]): 1.25 nM

Sequence: FQRVLIFIL
- Kd (HLA-A*02:06): 1580 nM
